Measured values from US20150329863, “APTAMERS INHIBITING THE ENZYMATIC ACTIVITY OF TYROSINASE” (L V M H RECHERCHE, published 2015).

T1: tyrosinase (endogenous, normal human melanocytes) (Homo sapiens) (UniProt P14679)
T1 sequence: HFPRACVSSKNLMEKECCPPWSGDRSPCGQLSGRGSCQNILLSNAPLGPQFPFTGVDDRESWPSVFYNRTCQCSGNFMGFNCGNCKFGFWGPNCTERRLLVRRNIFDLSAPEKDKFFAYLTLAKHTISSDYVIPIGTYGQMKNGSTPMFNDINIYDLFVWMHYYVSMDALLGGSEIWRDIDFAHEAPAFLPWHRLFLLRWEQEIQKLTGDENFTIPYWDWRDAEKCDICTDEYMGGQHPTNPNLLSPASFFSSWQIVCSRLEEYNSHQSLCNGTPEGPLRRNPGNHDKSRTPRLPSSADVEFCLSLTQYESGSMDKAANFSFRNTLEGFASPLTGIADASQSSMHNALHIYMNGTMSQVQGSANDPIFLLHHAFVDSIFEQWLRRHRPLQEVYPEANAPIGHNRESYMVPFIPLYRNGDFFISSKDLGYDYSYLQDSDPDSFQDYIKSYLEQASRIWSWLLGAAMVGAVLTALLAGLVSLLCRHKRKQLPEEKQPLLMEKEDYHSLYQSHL

T2: tyrosinase (TYR) (Homo sapiens, UniProt P14679 P14679:19-529)
T2 sequence: T1 sequence

B1: T10.1 (ssDNA)
DNA: GCCTGTTGTGAGCCTCCTGTCGAACGCAATGGGCGCAGATTGGAAGGCCTAGCATTGAGCGTTTATTCTTGTCTCCC

Tests used:
[1] = target: T1, tyrosinase (endogenous, normal human melanocytes) (Homo sapiens); test: cell_activity; settings: 4-200 nM, no dose dependence; 72 h melanocyte treatment, L-DOPA oxidation
[2] = target: T2, tyrosinase (TYR); test: SPR; 16 RU at 500 nM and 42 RU at 1 uM tyrosinase on about 1000 RU immobilized biotinylated aptamer; PBS-Mg buffer, 23 C; settings: tags: N-terminal GST tag, Abnova; label: biotin (SPR); predicted long imperfect stem-loop with 5-nt internal loop and 5-nt apical loop
Method: All the experiments were carried out on a Biacore 3000 device with PBS—Mg buffer at 23° C. The biotinylated oligonucleotides—heated at 75° C. for 5 minutes, placed on ice for 5 minutes and then placed at room temperature for at least 5 minutes—were immobilized on streptavidin-coated sensor chips (XanTec bioanalytics). The oligonucleotides were injected at 100 nM for 4 minutes at 5 μl/min to reach 800 to 1000 RU.
Tyrosinase and the GST-His control were injected at 500 nM and 1 μM at a rate of 20 μl/min at 23° C. The same injections were carried out with PBS—Mg buffer and tyrosinase storage buffer to subtract the effects of the buffer from the specific sensorgram.
The binding of this candidate, T10.1, and of truncated versions derived from the full-length candidate (Table 1) was investigated by surface plasmon resonance (SPR). About 1000 resonance units (RU) of biotinylated candidate T10.1 were immobilized and tyrosinase was injected at 500 nM or 1 μM. Signals of 16 and 42 RU were detected for 500 nM and 1 μM, respectively, indicating interaction between candidate T10.1 and tyrosinase (FIG. 2).

| Molecule | activity [1] | binding result [2] |
| --- | --- | --- |
| GCCTGTTGTGAGCCTCCTGTCGAANNNNNNNNNNNNNNNNNNNNNNNNNNNNNNTTGAGCGTTTATTCTTGTCTCCC [round 10 population] | > 75 % inhibition |  |
| B1 |  | binds |
